Results reported in patent US8026218 (UNIVERSITY OF ARIZONA, dated 2011).
Bridge positions count the residues as written; N and C are the ends. Square brackets hold non-standard residues; d marks the D form. Ends that are not written are not given here. * marks the point of attachment. NMe‑Bn(CF3)2 = C-terminal N-methyl bis(trifluoromethyl)benzyl amide; NMeBn(CF3)2 = C-terminal N-methyl bis(trifluoromethyl)benzyl amide; NH(3,5-(CF3)2-benzyl) = FC(F)(F)c1cc(CN*)cc(C(F)(F)F)c1; OBzl(3,5-(CF3)2) = FC(F)(F)c1cc(CO*)cc(C(F)(F)F)c1; OBn(OMe)2 = C-terminal OBn(OMe)2 ester; Dmt = Cc1cc(O)cc(C)c1C[C@H](N)C(=O)O; NHBn = c1ccc(CN*)cc1; OBn = c1ccc(CO*)cc1

B1: DmtDAlaGlyPheNleProLeuTrpNHBn-2,4-(OMe)2 (TY054) (peptide)
peptide: YAGFXPLW
modifications: not fully specified; Dmt at 1; D-Ala at 2; Nle at 5 (X); C-terminal NH-Bn-2,4-(OMe)2 amide

Assays:
[1] = biological target: T1, rat µ opioid receptor (rat, UniProt P33535 1-398); test: radioligand competition vs [3H]DAMGO, membranes of rMOR cells
T1 construct: whole, on cells; Used as crude membrane preparations of the transfected cells; also called rMOR; MOR
T1 sequence (P33535 whole entry): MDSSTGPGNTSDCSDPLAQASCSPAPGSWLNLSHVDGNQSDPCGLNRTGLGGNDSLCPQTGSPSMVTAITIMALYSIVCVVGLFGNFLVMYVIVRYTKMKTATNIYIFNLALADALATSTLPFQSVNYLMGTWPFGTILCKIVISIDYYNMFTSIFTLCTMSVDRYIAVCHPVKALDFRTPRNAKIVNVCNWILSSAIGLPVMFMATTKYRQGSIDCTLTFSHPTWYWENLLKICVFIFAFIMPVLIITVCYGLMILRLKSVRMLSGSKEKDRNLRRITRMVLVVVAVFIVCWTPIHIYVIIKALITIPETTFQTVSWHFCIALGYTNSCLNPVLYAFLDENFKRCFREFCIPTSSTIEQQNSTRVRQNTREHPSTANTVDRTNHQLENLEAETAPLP

[2] = biological target: T2, rat NK1 receptor (rat, UniProt P14600 1-407); test: radioligand competition vs [3H]substance P, membranes of rNK1 CHO cells
T2 construct: whole, on cells; Used as membrane preparations of transfected CHO cells; also called rNK1; rat neurokinin-1 receptor
T2 sequence (P14600 whole entry): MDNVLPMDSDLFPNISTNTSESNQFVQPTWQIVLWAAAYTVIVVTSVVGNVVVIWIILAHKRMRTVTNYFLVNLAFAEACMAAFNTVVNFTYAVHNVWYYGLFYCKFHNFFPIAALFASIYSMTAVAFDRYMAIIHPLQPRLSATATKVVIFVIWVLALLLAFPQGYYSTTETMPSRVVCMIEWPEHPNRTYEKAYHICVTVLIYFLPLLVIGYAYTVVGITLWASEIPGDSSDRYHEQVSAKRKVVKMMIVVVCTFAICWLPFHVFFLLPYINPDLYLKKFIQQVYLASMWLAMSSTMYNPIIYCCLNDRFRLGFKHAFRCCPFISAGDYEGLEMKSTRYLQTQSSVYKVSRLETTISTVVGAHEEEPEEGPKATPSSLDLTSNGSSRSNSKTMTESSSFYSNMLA

[3] = biological target: T3, human δ opioid receptor (human, UniProt P41143 1-372); test: radioligand competition vs [3H]DPDPE, membranes of hDOR cells
T3 construct: whole, on cells; Used as crude membrane preparations of the transfected cells; also called hDOR; DOR
T3 sequence (P41143 whole entry, stated change not applied): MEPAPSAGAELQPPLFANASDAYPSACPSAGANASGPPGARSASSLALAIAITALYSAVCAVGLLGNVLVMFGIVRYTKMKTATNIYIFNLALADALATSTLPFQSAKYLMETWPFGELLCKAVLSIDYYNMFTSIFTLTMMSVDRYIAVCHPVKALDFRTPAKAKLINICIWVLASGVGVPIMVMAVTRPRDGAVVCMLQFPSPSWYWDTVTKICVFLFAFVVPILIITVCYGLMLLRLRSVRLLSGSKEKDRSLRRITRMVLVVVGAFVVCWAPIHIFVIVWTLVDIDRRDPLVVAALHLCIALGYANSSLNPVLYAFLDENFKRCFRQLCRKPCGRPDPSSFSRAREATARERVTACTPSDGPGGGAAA

[4] = biological target: T4, human NK1 receptor (human, UniProt P25103 1-407); test: radioligand competition vs [3H]substance P, membranes of hNK1 CHO cells
T4 construct: whole, on cells; Used as membrane preparations of transfected CHO cells; also called hNK1; human neurokinin-1 receptor
T4 sequence (P25103 whole entry): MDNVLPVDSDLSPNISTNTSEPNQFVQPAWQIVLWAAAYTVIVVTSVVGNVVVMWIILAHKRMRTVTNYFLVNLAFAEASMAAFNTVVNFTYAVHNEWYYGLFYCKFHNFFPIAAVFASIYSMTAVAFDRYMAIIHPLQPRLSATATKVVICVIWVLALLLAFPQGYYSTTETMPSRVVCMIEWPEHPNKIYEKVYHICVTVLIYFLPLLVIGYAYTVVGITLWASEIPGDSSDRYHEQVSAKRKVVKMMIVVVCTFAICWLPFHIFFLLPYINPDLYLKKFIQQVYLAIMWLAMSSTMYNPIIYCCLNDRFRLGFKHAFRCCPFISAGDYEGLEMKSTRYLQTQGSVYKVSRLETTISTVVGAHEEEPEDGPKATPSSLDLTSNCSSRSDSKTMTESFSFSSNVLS

[5] = biological target: µ opioid receptor of the guinea pig isolated ileum (guinea pig, UniProt P97266 1-98); test: cell-based or functional assay
µ opioid receptor of the guinea pig isolated ileum, sequence (P97266 whole entry): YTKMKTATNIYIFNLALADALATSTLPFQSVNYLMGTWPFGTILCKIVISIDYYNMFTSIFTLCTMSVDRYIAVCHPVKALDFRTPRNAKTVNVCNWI

[6] = biological target: T1, rat µ opioid receptor; test: cell-based or functional assay
[7] = biological target: guinea pig NK1 receptor (guinea pig, UniProt P30547 1-407); test: cell-based or functional assay
guinea pig NK1 receptor, sequence (P30547 whole entry): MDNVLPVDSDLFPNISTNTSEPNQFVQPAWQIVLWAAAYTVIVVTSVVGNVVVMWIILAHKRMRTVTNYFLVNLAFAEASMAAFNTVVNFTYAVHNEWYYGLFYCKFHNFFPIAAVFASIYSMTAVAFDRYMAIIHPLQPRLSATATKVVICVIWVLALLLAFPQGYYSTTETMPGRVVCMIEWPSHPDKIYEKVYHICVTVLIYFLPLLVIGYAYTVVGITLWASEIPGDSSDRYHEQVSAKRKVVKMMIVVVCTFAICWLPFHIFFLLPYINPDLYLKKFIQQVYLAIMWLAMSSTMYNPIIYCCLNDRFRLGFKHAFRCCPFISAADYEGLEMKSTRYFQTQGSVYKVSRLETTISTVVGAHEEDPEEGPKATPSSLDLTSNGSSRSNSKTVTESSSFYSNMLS

[8] = biological target: T3, human δ opioid receptor; test: cell-based or functional assay

| Binder | Ki [1] | Ki [2] | Ki [3] | Ki [4] | GPI/LMMP opioid(mu) agonist IC50 [5] | GTP binding rMOR EC50 [6] | GTP binding rMOR Emax [6] | GPI/LMMP SP antagonist Ke [7] | GTP binding hDOR EC50 [8] | GTP binding hDOR Emax [8] |
| --- | --- | --- | --- | --- | --- | --- | --- | --- | --- | --- |
| MPLW-{OBzl(3,5-(CF3)2)} [MetProLeuTrpOBn(CF3)2 (TY036)] | 4550 nM | 0.99 nM | 1280 nM |  |  |  |  |  |  |  |
| [Dmt][dA]GFMPLW-{NH(3,5-(CF3)2-benzyl)} [DmtDAlaGlyPheMetProLeuTrpNHBn(CF3)2 (TY032)] |  | 2.3 nM | 0.12 nM | 0.008 nM | 18.6 nM | 62 nM | 74% | 7.5 nM | 1.2 nM | 24% |
| Y[dA]GFMPLW-NHBn [TyrDAlaGlyPheMetProLeuTrpNHBn (TY025)] |  |  | 0.44 nM |  | 61.1 nM |  | 46.8% | 9.9 nM | 2.6 nM | 51.7% |
| Y[dA]GFMPLW-OBn [TyrDAlaGlyPheMetProLeuTrpOBn (TY029)] |  | 20.3 nM |  |  | 22.2 nM |  | 133% | 5.1 nM | 3.4 nM | 98% |
| Y[dC]GF[dC]PLW-{NH(3,5-(CF3)2-benzyl)} (disulfide 2-5) [Tyr[DCysGlyPheDCys]ProLeuTrpNHBn(CF3)2 (TY037)] |  |  |  |  | 284 nM |  |  | 4.7 nM |  |  |
| YAGFXPLW (Dmt at 1; D-Ala at 2; Nle at 5 (X); C-terminal NMe-3,5-Bn(CF3)2 amide) [DmtDAlaGlyPheNleProLeuTrpNMeBn(CF3)2 (TY052)] |  |  | 0.46 nM | 0.21 nM |  |  |  |  |  |  |
| Y[dA]GFMPLW-{NMeBn(CF3)2} [TyrDAlaGlyPheMetProLeuTrpNMeBn(CF3)2 (TY028)] |  | 2.01 nM | 2.15 nM |  | 971 nM |  |  |  | 12.9 nM | 59% |
| Y[dA]GFPLW-{NH(3,5-(CF3)2-benzyl)} [TyrDAlaGlyPheProLeuTrpNHBn(CF3)2 (TY012)] |  | 32.6 nM |  | 0.61 nM |  |  |  |  |  |  |
| Y[dA]GFPLW-NHBn [TyrDAlaGlyPheProLeuTrpNHBn (TY008)] |  | 803 nM |  | 14 nM |  |  |  |  |  |  |
| Y[dA]GFM-NH2 [TyrDAlaGlyPheMetNH2 (TY040)] |  | 1100 nM |  | 145 nM |  |  |  |  |  |  |
| Y[dA]GFMPLW-{NH(3,5-(CF3)2-benzyl)} [TyrDAlaGlyPheMetProLeuTrpNHBn(CF3)2 (TY027)] |  | 7.27 nM |  |  | 488 nM |  |  |  | 8.6 nM | 58% |
| Y[dA]GFMPLW-OH [TyrDAlaGlyPheMetProLeuTrpOH (TY043)] |  | 9850 nM | 1.1 nM |  | 272 nM |  |  |  | 0.51 nM | 62% |
| B1 |  |  | 0.15 nM | 0.952 nM |  |  |  |  |  |  |
| Y[dA]GFMPLW-{OBn(OMe)2} [TyrDAlaGlyPheMetProLeuTrpOBn(OMe)2 (TY030)] |  | 9.53 nM | 0.93 nM |  |  |  |  | 4.1 nM | 0.8 nM | 61% |
| YAGFXPLW (Dmt at 1; D-Ala at 2; Nle at 5 (X); C-terminal NH-Bn-3-(CF3) amide) [DmtDAlaGlyPheNleProLeuTrpNHBn-3-(CF3) (TY053)] |  |  | 4.1 nM | 1.04 nM |  |  |  |  |  |  |
| YAGFXPLW (D-Ala at 2; Nle at 5 (X); C-terminal NH-Bn(CF3)2 amide) [TyrDAlaGlyPheNleProLeuTrpNHBn(CF3)2 (TY045)] |  |  | 1 nM | 0.0028 nM | 463 nM |  |  | 40.8 nM | 5 nM | 125% |
| Y[dA]GFPLW-OBn [TyrDAlaGlyPheProLeuTrpOBn (TY011)] |  | 659 nM |  |  |  |  |  |  |  |  |
| Y[dA]GFPLW-{NMe‑Bn(CF3)2} [TyrDAlaGlyPheProLeuTrpNMeBn(CF3)2 (TY013)] |  | 6.05 nM |  |  |  |  |  |  |  |  |
| YAGFMPLW (D-Ala at 2; Met(O) (oxidized methionine) at 5; C-terminal O-3,5-Bn(CF3)2 ester) [TyrDAlaGlyPheMet(O)ProLeuTrpOBn(CF3)2 (TY023)] |  | 0.2 nM | 5.08 nM | 0.00015 nM | 154 nM |  |  | 7.8 nM |  | 52.8% |
